18 variants from the supplement of paper PMC12855868 can be followed below.

First the molecules themselves.
B1: library; numbered along this chain (parent)
chain: MAAAGGARLLRAASAVLGGPAGRWLHHAGSRAGSSGLLRNRGPGGSAEASRSLSVSARARSSSEDKITVHFINRDGETLTTKGKVGDSLLDVVVENNLDIDGFGACEGTLACSTCHLIFEDHIYEKLDAITDEENDMLDLAYGLTDRSRLGCQICLTKSMDNMTVRVPETVADARQSIDVGKTS

This data set covers variants of B1. Kind of data set: scaled log2 fold change in cell abundance, elesclomol vs control (0 = silent mean, 1 = nonsense mean) (scaled log2 ratio); higher = higher viability under elesclomol (loss of FDX1 cuproptosis function). To be noted: glucose 10 mM.
The mark [1] stands for this setting: with ABC1 FDX1 KO, elesclomol 5 nM, 14 days.
Where [2] appears, read: with HEK293T FDX1 KO, elesclomol 40 nM, 11 days.
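Also: variant abundance is its share of total variant reads in each endpoint sample, from next-generation sequencing of the integrated ORF PCR-amplified out of genomic DNA.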

MAAAGGARLLRAASAVLGGPAGRWLHHAGSRAGSSGLLRNRGPGGSAEASRSLSVWARARSSSEDKITVHFINRDGETLTTKGKVGDSLLDVVVENNLDIDGFGACEGTLACSTCHLIFEDHIYEKLDAITDEENDMLDLAYGLTDRSRLGCQICLTKSMDNMTVRVPETVADARQSIDVGKTS [S56W]: the “scaled log2 fold change” value reads like this: under setting [1], -0.00445; under setting [2], 0.0272. The matching figures for MAAAGGARLLRAASAVLGGPAGRWLHHAGSRAGSSGLLRNRGPGGSAEASRSLSVTARARSSSEDKITVHFINRDGETLTTKGKVGDSLLDVVVENNLDIDGFGACEGTLACSTCHLIFEDHIYEKLDAITDEENDMLDLAYGLTDRSRLGCQICLTKSMDNMTVRVPETVADARQSIDVGKTS [S56T]: 0.0393 and 1.19.

MAAAGGARLLRAASAVLGGPAGRWLHHAGSRAGSSGLLRNRGPGGSAEASRSLSVQARARSSSEDKITVHFINRDGETLTTKGKVGDSLLDVVVENNLDIDGFGACEGTLACSTCHLIFEDHIYEKLDAITDEENDMLDLAYGLTDRSRLGCQICLTKSMDNMTVRVPETVADARQSIDVGKTS [S56Q]: the “scaled log2 fold change” value is, setting by setting: under setting [1], -0.214; under setting [2], 0.782. On to MAAAGGARLLRAASAVLGGPAGRWLHHAGSRAGSSGLLRNRGPGGSAEASRSLSVRARARSSSEDKITVHFINRDGETLTTKGKVGDSLLDVVVENNLDIDGFGACEGTLACSTCHLIFEDHIYEKLDAITDEENDMLDLAYGLTDRSRLGCQICLTKSMDNMTVRVPETVADARQSIDVGKTS [S56R], for which, under setting [1], the “scaled log2 fold change” value was 0.43. Consider MAAAGGARLLRAASAVLGGPAGRWLHHAGSRAGSSGLLRNRGPGGSAEASRSLSVPARARSSSEDKITVHFINRDGETLTTKGKVGDSLLDVVVENNLDIDGFGACEGTLACSTCHLIFEDHIYEKLDAITDEENDMLDLAYGLTDRSRLGCQICLTKSMDNMTVRVPETVADARQSIDVGKTS [S56P], for which the “scaled log2 fold change” value under setting [1] was 0.19. As for MAAAGGARLLRAASAVLGGPAGRWLHHAGSRAGSSGLLRNRGPGGSAEASRSLSVYARARSSSEDKITVHFINRDGETLTTKGKVGDSLLDVVVENNLDIDGFGACEGTLACSTCHLIFEDHIYEKLDAITDEENDMLDLAYGLTDRSRLGCQICLTKSMDNMTVRVPETVADARQSIDVGKTS [S56Y], the “scaled log2 fold change” value runs as follows: under setting [1], -0.541; under setting [2], 0.934.

Take MAAAGGARLLRAASAVLGGPAGRWLHHAGSRAGSSGLLRNRGPGGSAEASRSLSVVARARSSSEDKITVHFINRDGETLTTKGKVGDSLLDVVVENNLDIDGFGACEGTLACSTCHLIFEDHIYEKLDAITDEENDMLDLAYGLTDRSRLGCQICLTKSMDNMTVRVPETVADARQSIDVGKTS [S56V]: the “scaled log2 fold change” value runs as follows: under setting [1], 0.301; under setting [2], -0.368. Consider MAAAGGARLLRAASAVLGGPAGRWLHHAGSRAGSSGLLRNRGPGGSAEASRSLSVSIRARSSSEDKITVHFINRDGETLTTKGKVGDSLLDVVVENNLDIDGFGACEGTLACSTCHLIFEDHIYEKLDAITDEENDMLDLAYGLTDRSRLGCQICLTKSMDNMTVRVPETVADARQSIDVGKTS [A57I], for which the “scaled log2 fold change” value under setting [1] amounted to 0.296. As for MAAAGGARLLRAASAVLGGPAGRWLHHAGSRAGSSGLLRNRGPGGSAEASRSLSVSERARSSSEDKITVHFINRDGETLTTKGKVGDSLLDVVVENNLDIDGFGACEGTLACSTCHLIFEDHIYEKLDAITDEENDMLDLAYGLTDRSRLGCQICLTKSMDNMTVRVPETVADARQSIDVGKTS [A57E], the “scaled log2 fold change” value under setting [1] is -0.0705 and the “scaled log2 fold change” value under setting [2] was -0.933. For MAAAGGARLLRAASAVLGGPAGRWLHHAGSRAGSSGLLRNRGPGGSAEASRSLSVSMRARSSSEDKITVHFINRDGETLTTKGKVGDSLLDVVVENNLDIDGFGACEGTLACSTCHLIFEDHIYEKLDAITDEENDMLDLAYGLTDRSRLGCQICLTKSMDNMTVRVPETVADARQSIDVGKTS [A57M], the “scaled log2 fold change” value by setting is: under setting [1], -0.0569; under setting [2], -0.0232. The matching figures for MAAAGGARLLRAASAVLGGPAGRWLHHAGSRAGSSGLLRNRGPGGSAEASRSLSVSNRARSSSEDKITVHFINRDGETLTTKGKVGDSLLDVVVENNLDIDGFGACEGTLACSTCHLIFEDHIYEKLDAITDEENDMLDLAYGLTDRSRLGCQICLTKSMDNMTVRVPETVADARQSIDVGKTS [A57N]: 0.029 and 0.245. The like results for MAAAGGARLLRAASAVLGGPAGRWLHHAGSRAGSSGLLRNRGPGGSAEASRSLSVSFRARSSSEDKITVHFINRDGETLTTKGKVGDSLLDVVVENNLDIDGFGACEGTLACSTCHLIFEDHIYEKLDAITDEENDMLDLAYGLTDRSRLGCQICLTKSMDNMTVRVPETVADARQSIDVGKTS [A57F] were, in that order, -0.681 and -0.202. Consider MAAAGGARLLRAASAVLGGPAGRWLHHAGSRAGSSGLLRNRGPGGSAEASRSLSVSDRARSSSEDKITVHFINRDGETLTTKGKVGDSLLDVVVENNLDIDGFGACEGTLACSTCHLIFEDHIYEKLDAITDEENDMLDLAYGLTDRSRLGCQICLTKSMDNMTVRVPETVADARQSIDVGKTS [A57D], for which the “scaled log2 fold change” value is, setting by setting: under setting [1], 0.102; under setting [2], -0.382. The like results for MAAAGGARLLRAASAVLGGPAGRWLHHAGSRAGSSGLLRNRGPGGSAEASRSLSVSKRARSSSEDKITVHFINRDGETLTTKGKVGDSLLDVVVENNLDIDGFGACEGTLACSTCHLIFEDHIYEKLDAITDEENDMLDLAYGLTDRSRLGCQICLTKSMDNMTVRVPETVADARQSIDVGKTS [A57K] were, in that order, 0.162 and -1.1. With MAAAGGARLLRAASAVLGGPAGRWLHHAGSRAGSSGLLRNRGPGGSAEASRSLSVSGRARSSSEDKITVHFINRDGETLTTKGKVGDSLLDVVVENNLDIDGFGACEGTLACSTCHLIFEDHIYEKLDAITDEENDMLDLAYGLTDRSRLGCQICLTKSMDNMTVRVPETVADARQSIDVGKTS [A57G], the “scaled log2 fold change” value under setting [1] is -0.0446 and the “scaled log2 fold change” value under setting [2] is 1.2. With MAAAGGARLLRAASAVLGGPAGRWLHHAGSRAGSSGLLRNRGPGGSAEASRSLSVSCRARSSSEDKITVHFINRDGETLTTKGKVGDSLLDVVVENNLDIDGFGACEGTLACSTCHLIFEDHIYEKLDAITDEENDMLDLAYGLTDRSRLGCQICLTKSMDNMTVRVPETVADARQSIDVGKTS [A57C], the “scaled log2 fold change” value under setting [1] came out at 0.479. As to MAAAGGARLLRAASAVLGGPAGRWLHHAGSRAGSSGLLRNRGPGGSAEASRSLSVSLRARSSSEDKITVHFINRDGETLTTKGKVGDSLLDVVVENNLDIDGFGACEGTLACSTCHLIFEDHIYEKLDAITDEENDMLDLAYGLTDRSRLGCQICLTKSMDNMTVRVPETVADARQSIDVGKTS [A57L], the “scaled log2 fold change” value reads like this: under setting [1], -0.263; under setting [2], 0.149. The like results for MAAAGGARLLRAASAVLGGPAGRWLHHAGSRAGSSGLLRNRGPGGSAEASRSLSVSHRARSSSEDKITVHFINRDGETLTTKGKVGDSLLDVVVENNLDIDGFGACEGTLACSTCHLIFEDHIYEKLDAITDEENDMLDLAYGLTDRSRLGCQICLTKSMDNMTVRVPETVADARQSIDVGKTS [A57H] were, in that order, 0.158 and -0.799.
